Results from patent US20070010428A1, “Inhibitors of signal transduction and activator of transcription 3” (priority 2004, published 2007).

What was measured:
Stat3 = Stat3 (UniProt P40763); assay: fluorescence polarization competition
[1] = biological target: Stat3 in IL-6 stimulated HepG2 hepatoma cells (UniProt P40763); assay: cell-based or functional assay
Sequence of Stat3 in IL-6 stimulated HepG2 hepatoma cells (P40763 2-770 limits assumed): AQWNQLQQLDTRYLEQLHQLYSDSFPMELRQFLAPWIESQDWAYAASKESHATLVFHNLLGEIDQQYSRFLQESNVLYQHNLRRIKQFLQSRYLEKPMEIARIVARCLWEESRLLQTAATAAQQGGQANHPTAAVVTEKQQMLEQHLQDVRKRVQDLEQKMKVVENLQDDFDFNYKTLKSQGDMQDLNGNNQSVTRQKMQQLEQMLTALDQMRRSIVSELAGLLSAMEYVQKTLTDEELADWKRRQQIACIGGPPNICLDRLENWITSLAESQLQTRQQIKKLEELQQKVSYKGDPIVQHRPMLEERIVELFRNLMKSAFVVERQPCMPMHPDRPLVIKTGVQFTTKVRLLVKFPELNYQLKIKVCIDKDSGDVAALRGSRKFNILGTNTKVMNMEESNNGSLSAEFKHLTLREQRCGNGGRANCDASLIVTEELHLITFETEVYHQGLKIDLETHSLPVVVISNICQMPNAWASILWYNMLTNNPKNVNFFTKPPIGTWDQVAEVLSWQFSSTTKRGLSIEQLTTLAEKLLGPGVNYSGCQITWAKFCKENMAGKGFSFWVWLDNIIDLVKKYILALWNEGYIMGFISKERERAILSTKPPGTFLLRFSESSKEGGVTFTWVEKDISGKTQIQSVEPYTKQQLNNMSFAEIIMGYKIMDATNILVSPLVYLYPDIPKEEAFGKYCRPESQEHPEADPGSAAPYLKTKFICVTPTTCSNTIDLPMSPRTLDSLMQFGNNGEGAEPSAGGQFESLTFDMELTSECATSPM

Sequence of Stat3 (P40763 whole entry): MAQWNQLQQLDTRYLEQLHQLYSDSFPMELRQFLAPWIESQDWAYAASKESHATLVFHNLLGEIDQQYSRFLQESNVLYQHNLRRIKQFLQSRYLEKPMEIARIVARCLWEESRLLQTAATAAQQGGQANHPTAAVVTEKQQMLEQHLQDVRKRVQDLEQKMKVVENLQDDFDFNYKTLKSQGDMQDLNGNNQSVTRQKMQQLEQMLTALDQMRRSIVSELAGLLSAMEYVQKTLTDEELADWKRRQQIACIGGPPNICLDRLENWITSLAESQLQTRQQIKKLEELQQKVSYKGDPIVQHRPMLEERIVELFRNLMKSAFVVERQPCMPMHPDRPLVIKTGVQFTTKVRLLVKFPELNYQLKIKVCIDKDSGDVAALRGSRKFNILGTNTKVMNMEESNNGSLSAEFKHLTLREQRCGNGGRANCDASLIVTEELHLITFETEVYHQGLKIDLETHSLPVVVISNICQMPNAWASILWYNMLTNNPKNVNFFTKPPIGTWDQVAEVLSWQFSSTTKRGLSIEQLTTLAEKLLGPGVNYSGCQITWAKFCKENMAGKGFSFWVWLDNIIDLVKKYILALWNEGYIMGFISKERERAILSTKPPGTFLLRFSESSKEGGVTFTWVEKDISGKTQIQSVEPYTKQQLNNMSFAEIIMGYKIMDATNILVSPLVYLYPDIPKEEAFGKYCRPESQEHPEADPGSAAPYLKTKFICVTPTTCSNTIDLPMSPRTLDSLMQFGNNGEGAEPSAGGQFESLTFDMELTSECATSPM

| Substance | IC50 (Stat3) [nM] | further results |
| --- | --- | --- |
| Ac-pTyr-Leu-Pro-Gln-Thr-Val-mts (peptide) | – | IL-6 stimulated luciferase reporter under the Stat3-responsive alpha2-macroglobulin promoter, HEPG2 cells, peptide at 50 and 100 µM (% of that of IL-6) [1]: 60 to 70 |
| Ac-pTyr-Leu-methanoPro-Gln-Thr-NH2 (14, DRCIV-39B) | 200 | – |
| F2PmCinn-Cha-Pro-Gln-NHBn (8, PM-88D) | 2000 | – |
| F2PmCinn-Leu-Pro-Gln-Thr-Val-Ala-Ala-Val-Leu-Leu-Pro-Val-Leu-Leu-Ala-Ala-Pro-NH2 (peptide; the values are: luciferase activity remaining) | – | IL-6 stimulated luciferase reporter under the Stat3-responsive alpha2-macroglobulin promoter, HEPG2 cells, peptide at 50 µM [1]: 50%; IL-6 stimulated luciferase reporter under the Stat3-responsive alpha2-macroglobulin promoter, HEPG2 cells, peptide at 100 µM [1]: 25% |
| pCinn-Cha-Pro-Gln-NHBn (7, PM-66D) | 50 | – |

Further lines, with some results ahead:

| IC50 (Stat3) [nM] | Substance | further results |
| --- | --- | --- |
| 200 | Ac-pTyr-Haic-Gln-Thr-NH2 (10, DRCIV-35B) | – |
| 110 | pCinn-Cha-methanoPro-Gln-NHBn (15, PM-84D) | – |
| 110 | pCinn-Leu-Pro-Gln-Thr-NH2 (5, PM-50D) | – |
| 100 | pInd-Cha-Pro-Gln-NHBn (9, PM-67D) | – |
